# According to patent publication US20240262915A1 (NANJING SANHOME PHARMACEUTICAL, published 2024):
# T1: TIGIT-mFc (extracellular region of human TIGIT with mIgG1-Fc tag) (human)
# T1 construct: A bought TIGIT-mFc (Acro Biosystems TIT-H5253) is used for immunization; also called recombinant humanized TIGIT-mFc
# T1 chain: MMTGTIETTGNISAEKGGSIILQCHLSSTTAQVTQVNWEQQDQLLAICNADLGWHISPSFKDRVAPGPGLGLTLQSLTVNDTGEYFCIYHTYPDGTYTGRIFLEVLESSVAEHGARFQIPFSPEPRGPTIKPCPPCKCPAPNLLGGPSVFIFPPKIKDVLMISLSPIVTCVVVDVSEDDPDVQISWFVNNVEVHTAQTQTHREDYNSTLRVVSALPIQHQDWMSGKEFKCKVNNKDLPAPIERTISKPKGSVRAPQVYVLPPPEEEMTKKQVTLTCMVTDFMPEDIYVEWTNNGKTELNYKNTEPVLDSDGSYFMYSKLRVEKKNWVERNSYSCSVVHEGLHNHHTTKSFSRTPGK
# T2: TIGIT-his (extracellular region of human TIGIT protein fused with his) (human, UniProt Q495A1 22-141)
# T2 construct: also called antigen TIGIT-his
# T2 sequence: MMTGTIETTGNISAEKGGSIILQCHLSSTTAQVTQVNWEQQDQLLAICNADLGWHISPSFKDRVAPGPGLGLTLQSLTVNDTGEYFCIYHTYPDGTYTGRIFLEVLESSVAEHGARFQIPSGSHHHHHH
# T3: full-length TIGIT on hTIGIT-CHO-K1 cells (human, UniProt Q495A1 22-244)
# T3 construct: CHO-K1 cells stably transfected with pTargeT-TIGIT; also called TIGIT on cell surface
# T3 sequence: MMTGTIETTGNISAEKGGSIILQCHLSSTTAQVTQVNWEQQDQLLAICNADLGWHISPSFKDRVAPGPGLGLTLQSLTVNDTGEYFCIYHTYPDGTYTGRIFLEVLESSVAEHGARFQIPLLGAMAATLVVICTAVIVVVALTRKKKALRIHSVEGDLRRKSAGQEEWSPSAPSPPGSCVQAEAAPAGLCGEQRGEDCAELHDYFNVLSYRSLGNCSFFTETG
# Assays:
# [1] = target: T1, TIGIT-mFc (extracellular region of …); assay: FACS, blocking of TIGIT-mFc binding to cells (TIGIT/CD155; cells printed as hTIGIT-CHO-K1)
# [2] = target: T2, TIGIT-his (extracellular region of …); assay: BLI, Fortebio Octet RED96, antibody on AHC sensor, TIGIT-his in solution
# [3] = target: T4, human PD-L1 on hPD-L1-CHO-K1 cells (human, UniProt Q9NZQ7 19-290); assay: FACS, blocking of PD-1-mFc binding to hPD-L1-CHO-K1 cells (competitor PD-1-mFc)
# T4 construct: whole, on cells; The making of this cell line is not described
# [4] = target: T3, full-length TIGIT on hTIGIT-CHO-K1 cells; assay: FACS on hTIGIT-CHO-K1 cells
# PD-L1-his = target: T5, PD-L1-his (human, UniProt Q9NZQ7 19-238, limits assumed); assay: BLI, Fortebio Octet RED96, antibody on AHC sensor, PD-L1-his in solution
# T5 construct: also called human PD-L1 protein
# [5] = target: T4, human PD-L1 on hPD-L1-CHO-K1 cells; assay: FACS on hPD-L1-CHO-K1 cells
# T5 sequence (Q9NZQ7 19-238 limits assumed): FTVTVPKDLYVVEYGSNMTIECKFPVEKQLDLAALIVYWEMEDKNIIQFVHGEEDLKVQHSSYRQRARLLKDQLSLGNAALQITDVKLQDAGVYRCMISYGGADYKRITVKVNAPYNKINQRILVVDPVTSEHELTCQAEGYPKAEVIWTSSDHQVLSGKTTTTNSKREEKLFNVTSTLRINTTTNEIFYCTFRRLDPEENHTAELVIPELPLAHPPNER
# T4 sequence (Q9NZQ7 19-290): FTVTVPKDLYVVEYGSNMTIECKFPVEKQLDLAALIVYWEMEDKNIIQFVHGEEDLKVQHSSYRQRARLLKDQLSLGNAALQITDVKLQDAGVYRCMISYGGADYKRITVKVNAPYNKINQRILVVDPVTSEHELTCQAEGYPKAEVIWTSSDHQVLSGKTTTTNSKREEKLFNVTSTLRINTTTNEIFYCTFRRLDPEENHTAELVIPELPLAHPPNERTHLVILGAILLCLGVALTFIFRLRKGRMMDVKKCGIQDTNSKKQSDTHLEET
binder,measurement,setting,value
"HuPL721-T2353-ScFab (bispecific antibody, human IgG4 S228P, kappa, each is light chain - GGGGS linker - heavy chain, IgG4) chain 1: DIQMTQSPSSLSASVGDRVTITCRTSQDIGNSLRWFQQKPGKAPKLLIHGATNLANGVPSRFSGSGSGTDFTLTISSLQPEDFATYYCLQHNEYPLTFGCGTKLEIKRTVAAPSVFIFPPSDEQLKSGTASVVCLLNNFYPREAKVQWKVDNALQSGNSQESVTEQDSKDSTYSLSSTLTLSKADYEKHKVYACEVTHQGLSSPVTKSFNRGECGGGGSGGGGSGGGGSGGGGSGGGGSGGGGSGGGGSGGGGSEVQLVESGGGLVQPGGSLRLSCAASGFTFSDHWMSWVRQAPGKCMEWIGNIQYDGSYTNYAPSLKNRFTISRDNAKNSLYLQMNSLRAEDTATYYCTRGHFRITMASMGASASVYWGQGTMVTVSSASTKGPSVFPLAPCSRSTSESTAALGCLVKDYFPEPVTVSWNSGALTSGVHTFPAVLQSSGLYSLSSVVTVPSSSLGTKTYTCNVDHKPSNTKVDKRVESKYGPPCPPCPAPEFLGGPSVFLFPPKPKDTLMISRTPEVTCVVVDVSQEDPEVQFNWYVDGVEVHNAKTKPREEQFNSTYRVVSVLTVLHQDWLNGKEYKCKVSNKGLPSSIEKTISKAKGQPREPQVYTLPPCQEEMTKNQVSLWCLVKGFYPSDIAVEWESNGQPENNYKTTPPVLDSDGSFFLYSRLTVDKSRWQEGNVFSCSVMHEALHNHYTQKSLSLSLGK chain 2: not shown",IC50,[1],4.08 nM
same,Kd,[2],3.06 nM
same,koff,[2],0.00333 s⁻¹
same,kon,[2],1.09e+06 M⁻¹ s⁻¹
same,IC50,[3],3.19 nM
same,EC50,[4],1.3 nM
same,Kd,PD-L1-his,1.32 nM
same,koff,PD-L1-his,0.000273 s⁻¹
same,kon,PD-L1-his,207000 M⁻¹ s⁻¹
same,EC50,[5],1.77 nM
